Patent US20110024630A1, “System, Device, and Methods for Real-Time Screening of Live Cells, Biomarkers, and Chemical Signatures” (BATTELLE MEMORIAL INSTITUTE, priority 2009, published 2011)

Tested on: JB6 carcinogenesis mouse endothelial model cells
Assay: Real-time ATR-FTIR monitoring of confluent cells treated with tumor promoter (bFGF)
Assay type: cell-based
Conditions: 72-hour time point, bFGF added at 48 hours
Procedure: Spent media was replaced with fresh media at 24-hour intervals. Cells were confluent at 24 hours and had attached to the ATR substrate. […] The 1604 cm^−1 band also contains a broad water band which is observed at the 6.5 hour time point where there is greater media contact with the ATR substrate due to a non-confluent cell monolayer. […] Tyrosine aromatic rings absorb in the 1508 cm^−1 region and the symmetric carboxylate stretching vibrations are reflected in the band at 1452 cm^−1. Overall, data reflect the ability to obtain spectra over a period of days which show the attachment of cells to the substrate and a response to perturbation.
Mouse cells (JB6 carcinogenesis mouse endothelial model cells) (clone 41-5a, ATCC, Manassas, Va., USA) were maintained in a minimal essential medium (MEM+GlutaMAX-I™, CISCO, Grand Island, N.Y.) supplemented with 5% fetal bovine serum (FBS) (Atlanta Biologicais, Norcross, Ga.) that further included: 1% penicillin/streptomycin (GIBCO, Grand Island, N.Y.) and an additional 1%. GlutaMAX-I™ (GIBCO, Grand Island, N.Y.). Cells were maintained at 37° C. and 5% CO2 in an incubator (e.g., a ThermoForma Series II Water Jacketed CO2 incubator. Thermo Fisher Scientific, inc., Waltham, Mass.) equipped with a HEPA filter. The JB6 cells were subcultured at 70-80% confluency following standard protocols. […]

basic fibroblast growth factor [bFGF]
cell outcome to which spectral results are attributed: cell death | 1696 cm^-1 amide peak (FIG. 7b): increased intensity and has broadened
